Values of other authors as cited in article PMC7149769.

Columns and labels:
Factor Xa (Homo sapiens) = Factor Xa (Homo sapiens) (UniProt P00742)
Factor X (Homo sapiens) = Factor X (Homo sapiens) (UniProt P00742)

Kd (Factor Xa (Homo sapiens)) [nM] | Kd (Factor X (Homo sapiens)) [nM] | Substance
1 | – | Factor Va (from UniProt P12259)
– | 30 | Mac-1 (from UniProt P11215)
